Reference: article PMC10115243 (Nature plants, 2023)

What was measured:
[1] = target: GalS1-ΔSTEM (Populus trichocarpa GalS1 lacking the stem region, residues 73-113) (Populus trichocarpa); test: SEC-MALS
[2] = target: Populus trichocarpa galactan synthase 1 (GalS1), residues 73-495, tag removed (Populus trichocarpa); test: SEC-MALS
[3] = target: Populus trichocarpa galactan synthase 1 (GalS1), residues 73-495, tag removed (Populus trichocarpa); test: SEC-MALS + other: SAXS

stoichiometry N [1]	stoichiometry N [2]	stoichiometry N [3]	Substance
2	–	–	GalS1-ΔSTEM (Populus trichocarpa GalS1 lacking the stem region, residues 73-113) (domain or fragment)
–	2	2	Populus trichocarpa galactan synthase 1 (GalS1), residues 73-495, tag removed (enzyme)
